Assay results: patent publication US20070203188, “Low molecular weight Myc-Max inhibitors” (University of Pittsburgh, published 2007)

Molecular target: c-Myc353-439 (bHLH-LZ)/Max(S) heterodimer (Homo sapiens, UniProt P01106;P61244-2 P01106:368-454,P61244-2:1-151)
Experiment: EMSA; 60 nM each protein, 10 nM DNA; 1xPBS pH 7.3, 1 mM EDTA, 0.1% NP40, 5% glycerol, 1 mM DTT, 0.4 mg/mL BSA, 25 C; binding inhibited dose-dependently by 10058-F4 and analogs
Details: tags: c-Myc: His6 cleaved by TEV, GGCD C-terminal extension, label: 5'-HEX on one strand
Description: Electrophoretic mobility shift Assays (EMSAs). Experiments were performed on 8% polyacrylamide:bis-acrylamide (80:1) gels in 0.5×TBE. Binding reactions were prepared in a buffer consisting of 1×PBS (pH 7.3); 1 mM EDTA; 0.1% NP40; 5% glycerol; 1 mM dithiothreitol; and 0.4 mg/mL BSA. A 22 base-pair E-box-containing double-stranded DNA oligonucleotide labeled on one strand with hexachlorofluoresceine (HEX) consisted of the following sequence:
The second method used to gauge the effects of 10058-F4 and its analogs on c-Myc-Max complexes relied on the use of a simple, three component electrophoretic mobility shift assay (EMSA). For this purpose, a recombinant c-Myc peptide, which encompasses the bHLH-LZ domain (c-_{Myc353-439}), together with the full-length His₆-tagged 151 amino acid isoform of Max [designated Max(S)] (Zhang H, et al. J Biol Chem 1997; 272; 17416-24 and Prochownik E V, et al. Proc Natl Acad Sci USA 1993; 90:960-4) were incubated in increasing concentrations of each relevant compound. The ability of the resultant heterodimer to bind a double-stranded target oligonucleotide containing a consensus E-box motif was then assessed by PAGE. […]

Sequence of c-Myc353-439 (bHLH-LZ)/Max(S) heterodimer (P01106 368-454, chain 1 of 2): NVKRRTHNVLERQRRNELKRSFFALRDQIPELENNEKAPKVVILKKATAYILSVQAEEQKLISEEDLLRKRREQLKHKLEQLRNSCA
Sequence of c-Myc353-439 (bHLH-LZ)/Max(S) heterodimer (P61244 other isoform, or with tags, fused parts or gaps, chain 2 of 2): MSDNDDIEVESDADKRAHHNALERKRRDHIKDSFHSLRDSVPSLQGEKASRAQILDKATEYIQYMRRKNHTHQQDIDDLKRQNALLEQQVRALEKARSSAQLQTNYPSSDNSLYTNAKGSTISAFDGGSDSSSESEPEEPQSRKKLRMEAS

B1: E-box 22-mer duplex (dsDNA)
DNA 1: CACCCGGTCACGTGGCCTACAC
DNA 2: GTGTAGGCCACGTGACCGGGTG
B1: binds.
